# How the values were obtained:
# [1] = molecular target: cdPadR1 (Clostridium difficile R20291, UniProt A0A9R0CDW8 1-109); assay: EMSA; 20 mM Tris pH 8.0, 120 mM KCl, 10 mM MgCl2, 5 mM DTT, 12.5% glycerol, 125 ug/mL heparin, room temperature; conditions: protein: recombinant; tags: N-terminal Strep II; chain copies: 2
# [2] = molecular target: cdPadR1 (Clostridium difficile R20291, UniProt A0A9R0CDW8 1-109); assay: EMSA; no significant binding; EMSA: 20 mM Tris pH 8.0, 120 mM KCl, 12.5% glycerol, 10 mM MgCl2, 5 mM DTT, 125 ug/mL heparin (400 ug/mL in competition), room temperature; 8% PAGE in TB; conditions: protein: recombinant; tags: N-terminal Strep II; chain copies: 2; blunt
Binder,binding result [1],binding result [2]
Pr47 (dsDNA) DNA 1: TCTTGACCTCGATAAGTGTCGTAAGTCAAGGGTAATTTATATATCAGTGAAAAATAATTACATTTAATCTAATGTTTTTAGAGAGGAGGATGCTATGTTA DNA 2: TAACATAGCATCCTCCTCTCTAAAAACATTAGATTAAATGTAATTATTTTTCACTGATATATAAATTACCCTTGACTTACGACACTTATCGAGGTCAAGA,no binding,
Pr104 (dsDNA) DNA 1: AGGTGAATGAAACAAAAGATGTCATGATAAGTCATGTAAAACAATAGTTT DNA 2: AAACTATTGTTTTACATGACTTATCATGACATCTTTTGTTTCATTCACCT,binds,
Pr118 (dsDNA) DNA 1: AACCCGTCATATGGCTTGAGTTTATACTCAAGCTTTTTTTATTGGTATATTTATATATATAAATAATTTAATATAATCAAAATGATGGGGGTATGTTACA DNA 2: TGTAACATACCCCCATCATTTTGATTATATTAAATTATTTATATATATAAATATACCAATAAAAAAAGCTTGAGTATAAACTCAAGCCATATGACGGGTT,binds,
Pr101 (dsDNA) DNA 1: GTACTATACAGCCTGGAGTAG DNA 2: CTACTCCAGGCTGTATAGTAC,,no binding
Pr96 (dsDNA) DNA 1: AAGTAACATACCCAATTTTGAGGT DNA 2: ACCTCAAAATTGGGTATGTTACTT,no binding,
Pr119 (dsDNA) DNA 1: TTTCAACCACTCCTCTTAGTTTGATTTGGTAAGTTTAGGTCGGTATTTATTATATAATATAAATGAAACATTATATAATGGAAAAATTTCCCAGTAAACT DNA 2: AGTTTACTGGGAAATTTTTCCATTATATAATGTTTCATTTATATTATATAATAAATACCGACCTAAACTTACCAAATCAAACTAAGAGGAGTGGTTGAAA,binds,
Pr94 (dsDNA) DNA 1: AATGAAACAAAAGATGTCATG DNA 2: CATGACATCTTTTGTTTCATT,no binding,
Pr105 (dsDNA) DNA 1: AAAAGATGTCATGATAAGTCATGTAA DNA 2: TTACATGACTTATCATGACATCTTTT,no binding,
Pr102 (dsDNA) DNA 1: TTTTAACCCTCCTAAAATTTATCATTATATAAGTAACATACCCAATTTTG DNA 2: CAAAATTGGGTATGTTACTTATATAATGATAAATTTTAGGAGGGTTAAAA,binds,
Pr103 (dsDNA) DNA 1: TATATAAGTAACATACCCAATTTTGAGGTGAATGAAACAAAAGATGTCAT DNA 2: ATGACATCTTTTGTTTCATTCACCTCAAAATTGGGTATGTTACTTATATA,no binding,
Pr106 (dsDNA) DNA 1: AAAATTTATCATTATATAAGTAACATAC DNA 2: GTATGTTACTTATATAATGATAAATTTT,no binding,
Pr27 (Pobg) (dsDNA) DNA 1: ATACATAAAAGGAGTGTTGAGGCACTCCTTTTTCTTATAATACTGATGAATTTATAATGGTATTTTTGGTAATGCTAATTAAAAGTTTTTAATTAAGTAG DNA 2: CTACTTAATTAAAAACTTTTAATTAGCATTACCAAAAATACCATTATAAATTCATCAGTATTATAAGAAAAAGGAGTGCCTCAACACTCCTTTTATGTAT,binds,
Pr114 (dsDNA) DNA 1: ATATTTTATAATTAATAATTGTAATGCCGCACAGTAAAGGTTTAAATCTTCAAATGAAGTACCTTGTACTGGCGAGTTTGAGGCCGAGGAGGTGTATTTA DNA 2: TAAATACACCTCCTCGGCCTCAAACTCGCCAGTACAAGGTACTTCATTTGAAGATTTAAACCTTTACTGTGCGGCATTACAATTATTAATTATAAAATAT,no binding,
Pr95 (dsDNA) DNA 1: TAAAATTTATCATTATATAAGTAA DNA 2: TTACTTATATAATGATAAATTTTA,no binding,
Pr97 (dsDNA) DNA 1: TTACTTATATAATGATAAATTTTAGGAG DNA 2: CTCCTAAAATTTATCATTATATAAGTAA,no binding,
Pr112 (dsDNA) DNA 1: ATATTTTAGTTATATTTTTGATAGAAAATATTTTATCGTGTATAATACTACTTATAAATAAGAATAAAAATAAAGAGCTTGTTTGGAGGAATTTTAATAA DNA 2: TTATTAAAATTCCTCCAAACAAGCTCTTTATTTTTATTCTTATTTATAAGTAGTATTATACACGATAAAATATTTTCTATCAAAAATATAACTAAAATAT,binds,
Pr46 (dsDNA) DNA 1: TTTTTTTATTTATAAACATTATTAAAAAAATATAGATGTTTTGGTTATATTCCTTGTCCTTTATAAATAGAATTATATAAACAAAGGAGGAGGACAAGAG DNA 2: CTCTTGTCCTCCTCCTTTGTTTATATAATTCTATTTATAAAGGACAAGGAATATAACCAAAACATCTATATTTTTTTAATAATGTTTATAAATAAAAAAA,binds,

# Source: publication PMC5050560
